Measured values published in paper PMC5847621 (2018).

Biological target: T1, VSV Gth, soluble form of the ectodomain of VSV glycoprotein G (residues 1-422) (Vesicular stomatitis virus (Mudd-Summer …, UniProt P0C2X0 17-438))
T1 chain: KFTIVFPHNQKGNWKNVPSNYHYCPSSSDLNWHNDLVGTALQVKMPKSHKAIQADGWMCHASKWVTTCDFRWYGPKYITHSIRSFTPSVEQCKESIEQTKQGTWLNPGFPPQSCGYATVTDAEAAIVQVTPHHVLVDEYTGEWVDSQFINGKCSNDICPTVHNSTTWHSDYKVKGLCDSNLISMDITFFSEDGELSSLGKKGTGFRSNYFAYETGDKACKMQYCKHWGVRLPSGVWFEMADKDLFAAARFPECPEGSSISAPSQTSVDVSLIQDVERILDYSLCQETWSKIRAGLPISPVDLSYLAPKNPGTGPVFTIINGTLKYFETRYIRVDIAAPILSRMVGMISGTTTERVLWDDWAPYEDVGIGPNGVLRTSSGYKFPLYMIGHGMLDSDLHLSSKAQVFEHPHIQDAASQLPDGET
Assay: ITC

B1: LDL-R CR3 domain, isolated (GST cleaved off) (domain or fragment)
chain: not shown
  Kd: 3.75 µM
